Measured values: the RNAGym collection of RNA variant scans (doi:10.1093/nar/gkz1192)

B1: CPEB3 Ribozyme (parent)
chain: UAACAGGGGGCCACAGCAGAAGCGUUCACGUCGCAGCCCCUGUCAGAUUCUGGUGAAUCUGCGAAUUCUGCUGUAUAUCUC

Variants of: B1
Experiment: self-cleavage, relative activity (ratio to wild type); higher = more cleavage; in vitro, sequencing
Outline: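 Barcoded CPEB3 ribozyme mutants, produced by rounds of error-prone PCR, self-cleaved while being transcribed with T7 RNA polymerase for 5 hours at 37°C and during a subsequent 15 min DNase I step before EDTA was added. Sequencing of template-switched cDNA on Illumina gave cleaved and total reads, and DNA sequencing assigned barcodes to variants. Each variant's relative activity is its cleaved/total read fraction divided by the unmutated ribozyme's fraction, averaged across three batches. A variant needed a minimum of 5 reads.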
In the case of G8A G24A, the self-cleavage is reported as 0.08.
In the case of G8A G30A, the self-cleavage is reported as 0.4.
Variant G8A G30U has a self-cleavage of 0.16.
Variant G8A G33U has a self-cleavage of 0.07.
Work on G8A G42A yielded a self-cleavage of 0.1.
For G8A G52A, the self-cleavage was 0.3.
For G8A G55A, the self-cleavage was 0.06.
In the case of G8A G63C, the self-cleavage is reported as 0.19.
Variant G8A G70A has a self-cleavage of 0.05.
Work on G8A G73A yielded a self-cleavage of 0.18.
In the case of G8A U25A, the self-cleavage is reported as 0.05.
With G8A U25C the self-cleavage was 0.26.
With G8A U26A the self-cleavage was 0.19.
G8A U26C showed a self-cleavage of 0.13.
Variant G8A U31A has a self-cleavage of 0.18.
G8A U31C showed a self-cleavage of 0.24.
In the case of G8A U31G, the self-cleavage is reported as 0.41.
With G8A U41A the self-cleavage was 0.07.
G8A U41C gave a self-cleavage of 0.32.
In the case of G8A U43A, the self-cleavage is reported as 0.27.
With G8A U43C the self-cleavage was 0.14.
With G8A U48A the self-cleavage was 0.27.
Work on G8A U48C yielded a self-cleavage of 0.15.
In the case of G8A U48G, the self-cleavage is reported as 0.37.
With G8A U49A the self-cleavage was 0.25.
G8A U49C gave a self-cleavage of 0.2.
G8A U51A showed a self-cleavage of 0.24.
With G8A U51C the self-cleavage was 0.21.
With G8A U51G the self-cleavage was 0.09.
With G8A U54A the self-cleavage was 0.08.
With G8A U54C the self-cleavage was 0.14.
Work on G8A U58C yielded a self-cleavage of 0.2.
In the case of G8A U60A, the self-cleavage is reported as 0.18.
With G8A U60C the self-cleavage was 0.23.
Variant G8A U66C has a self-cleavage of 0.12.
G8A U67A gave a self-cleavage of 0.26.
For G8A U67C, the self-cleavage was 0.22.
Variant G8A U67G has a self-cleavage of 0.48.
G8A U69A showed a self-cleavage of 0.28.
Work on G8A U69C yielded a self-cleavage of 0.19.
For G8A U69G, the self-cleavage was 0.28.
With G8A U72A the self-cleavage was 0.07.
Work on G8A U72C yielded a self-cleavage of 0.26.
G8A U72G showed a self-cleavage of 0.12.
Work on G8A U74A yielded a self-cleavage of 0.25.
G8A U74C gave a self-cleavage of 0.35.
G8A U76A showed a self-cleavage of 0.49.
With G8A U78A the self-cleavage was 0.37.
Work on G8A U78C yielded a self-cleavage of 0.35.
With G8A U80A the self-cleavage was 0.29.
For G8A U80C, the self-cleavage was 0.19.
With G8C the self-cleavage was 0.27.
G8C A13U gave a self-cleavage of 0.16.
Variant G8C A15C has a self-cleavage of 0.29.
In the case of G8C A18G, the self-cleavage is reported as 0.27.
G8C A18U gave a self-cleavage of 0.23.
With G8C A21G the self-cleavage was 0.06.
Work on G8C A28G yielded a self-cleavage of 0.22.
Work on G8C A56G yielded a self-cleavage of 0.17.
With G8C A57G the self-cleavage was 0.52.
G8C A64U gave a self-cleavage of 0.22.
In the case of G8C A65G, the self-cleavage is reported as 0.38.
For G8C C23A, the self-cleavage was 0.3.
Variant G8C C27A has a self-cleavage of 0.19.
With G8C C32U the self-cleavage was 0.2.
G8C C38U showed a self-cleavage of 0.07.
In the case of G8C C40U, the self-cleavage is reported as 0.13.
Variant G8C G33A has a self-cleavage of 0.06.
Work on G8C G36C yielded a self-cleavage of 0.15.
G8C G52A gave a self-cleavage of 0.31.
Work on G8C G55A yielded a self-cleavage of 0.37.
For G8C G73U, the self-cleavage was 0.25.
Work on G8C U25C yielded a self-cleavage of 0.15.
For G8C U26C, the self-cleavage was 0.08.
With G8C U31C the self-cleavage was 0.38.
Work on G8C U31G yielded a self-cleavage of 0.34.
Work on G8C U43C yielded a self-cleavage of 0.4.
G8C U51A gave a self-cleavage of 0.12.
For G8C U54C, the self-cleavage was 0.44.
G8C U58C gave a self-cleavage of 0.21.
In the case of G8C U60A, the self-cleavage is reported as 0.14.
In the case of G8C U60C, the self-cleavage is reported as 0.24.
G8C U66C gave a self-cleavage of 0.41.
